Measurements: US20230001007A1, “Glycan-Interacting Compounds and Methods of Use” (Seagen Inc., priority 2017, published 2023)

Tests used:
[1] = system: array glycans (AcSTn, GcSTn, Tn and others); test: Glycan array analysis; type: binding; set-up: key: Group 1: capable of binding AcSTn and GcSTn, if they bind to glycans 5, 6, 23 and 24; Group 2: capable of binding STn as well as some related structures that include an O-linkage to serine or threonine, if they bind to glycans 5, 6, 23, 24, 27 and 31; Group 3: capable of binding STn, but may also bind a broader set of related structures) if they bind glycans 5, 6, 23, 24, 17, 3, 19, 37, 27 and 31; Group 4: capable of binding to both AcSTn and GcSTn as well as the un-sialylated Tn antigen (therefore having broader specificity) if they bind to glycans 5, 6, 23, 24 and 47
Experimental: Optimized glycan arrays are utilized to test antibody affinity and specificity for multiple glycans in a single experiment. Glycan arrays include 71 chemically synthesized and well-defined glycans, most of which are Neu5Ac and Neu5Gc glycan pairs.
300 ml of epoxy blocking buffer is prepared by combining 15 ml of 2 M Tris buffer (pH 8) with 0.9 ml of 16.6 M ethanolamine and 284.1 ml of distilled water. The solution is brought to a final pH of 9.0 with HCl. The solution is filtered using a […] nitrocellulose membrane. The epoxy buffer solution as well as 1 L of distilled water are pre-warmed to 50° C. Glass slides are arranged in a slide holder and quickly submerged in a staining tub with the warmed epoxy blocking buffer. Slides are incubated in the epoxy blocking buffer for 1 hour at 50° C. with periodic shaking to deactivate epoxy binding sites. Next, slides are rinsed and blocked with PBS with 1% OVA at 25° C. for one hour. Serum samples with polyclonal antibodies (1:1000) or purified monoclonal antibodies (1 ug/mL), are diluted in PBS with 1% OVA and added to the glycan array for one hour at 25° C. After extensive washing, binding of antibodies are detected by incubating glycan microarray slides with Cy3-conjugated anti-mouse IgG (Jackson Immunoresearch, West Grove, Pa.) for one hour. Slides are then washed extensively, dried and scanned with a Genepix 4000B scanner (Laser at 100%; gain at 350; 10 μm pixels). Raw data from scanned images are extracted using the Genepix software and analysis of raw data is carried out.
Based on array analysis, antibodies are classified according to array glycan binding profile. Antibodies are classified as “Group 1” antibodies, capable of binding AcSTn and GcSTn, if they bind to glycans 5, 6, 23 and 24. Such antibodies are referred to as Pan-STn antibodies due to their ability to associate with a wider range of STn structures and the portion of STn indicated by the largest ellipse in FIG. 1A. […]

[2] = system: MDA-MB-231 cells transfected for enhanced expression of STn (STn positive cells); test: ADC cytotoxicity assay ([…]-GLO); type: cell-based; conditions: MMAE-conjugated ADC versions; 72 hours; kill of STn positive cells
Experimental: MMAE-conjugated ADC versions of hSIA101, hSIA102, and hSIA103 were assessed in an ADC cytotoxicity assay using MDA-MB-231 cells (parental or transfected for enhanced expression of STn). Parental cells were grown in Eagle's Minimum Essential Medium (EMEM) supplemented with 10% FBS, lx Pen/Strep and 45 μg/mL gentamycin. STn positive cells were grown in the same media except with the addition of 1 mg/mL G418 for antibiotic selection. Cells were seeded separately (4,000 cells/well for parental cells or 2,000/well for STn positive cells) in 96-well plates using proper media described above. Cells were grown overnight. After 16-20 hours, cells were treated with varying concentrations of test antibodies in triplicate (50 nM to 0.012 nM) for 72 hours. Then, cells were analyzed using an ADC […]-GLO® luminescent cell viability assay kit (Promega, Madison, Wis.) to determine the amount of ATP present, an indicator of metabolically active cells. The assay uses a single reagent that is added directly to the cultured cells in serum-supplemented medium. The reagent lyses the cells and generates a luminescent signal proportional to the amount of ATP present. Luminescent signals were analyzed and used to calculate the half-maximal inhibitory concentration (IC50) values for each antibody used based on the concentration required to kill STn positive cells at half-maximal levels (see Table 9).

B1: hSIA101 (antibody, V domains shown)
VH: EVQLVQSGAEVKKPGASVKVSCKASGYTFTDHAIHWVRQAPGQGLEWMGYFSPGNDDIKYNEKFRGRVTMTADKSSSTAYMELRSLRSDDTAVYFCKRSLSTPYWGQGTLVTVSS
VL: DIVMTQSPDSLAVSLGERATINCKSSQSLLNRGNHKNYLTWYQQKPGQPPKLLIYWASTRESGVPDRFSGSGSGTDFTLTISSLQAEDVAVYYCQNDYTYPYTFGQGTKVEIK
- Array glycan binding profile [1]: Group 1
- IC50 [2]: 5.2 nM
